US20250066487A1 (ABL BIO, published 2025)

Legend:
[1] = target: T1, human 4-1BB expressed on GloResponse NFκB-luc2/4-1BB Jurkat cells (Promega) (human, UniProt Q07011 24-255); assay: cell-based or functional assay
[2] = target: T1, human 4-1BB expressed on GloResponse …; assay: cell-based or functional assay; remark: listed apart in the source
[3] = target: T2, human 4-1BB-Fc protein (Sino Biological) (human, UniProt Q07011 24-186); assay: ELISA, plate coated with human 4-1BB-Fc, detection with anti-human IgG-HRP
T2 construct: Bought protein; not shown: Fc part of the bought fusion protein
T2 sequence (Q07011 24-186 limits assumed): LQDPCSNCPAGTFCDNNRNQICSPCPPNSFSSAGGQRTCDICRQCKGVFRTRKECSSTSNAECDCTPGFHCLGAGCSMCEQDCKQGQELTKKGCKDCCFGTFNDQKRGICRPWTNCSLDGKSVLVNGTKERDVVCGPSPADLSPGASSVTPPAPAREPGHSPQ

T1 sequence (Q07011 24-255 limits assumed): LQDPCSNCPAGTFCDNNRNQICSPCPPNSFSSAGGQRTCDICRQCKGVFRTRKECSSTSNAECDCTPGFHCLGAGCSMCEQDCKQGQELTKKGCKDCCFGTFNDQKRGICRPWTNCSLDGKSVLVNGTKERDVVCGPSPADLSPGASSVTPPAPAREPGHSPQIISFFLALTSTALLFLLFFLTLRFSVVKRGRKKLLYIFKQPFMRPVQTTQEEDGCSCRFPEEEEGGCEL

Row | Binder | EC50, FcγRIIb-dependent 4-1BB bioassay [1] | Fold of induction (RLU), FcγRIIb-dependent 4-1BB bioassay [1] | EC50, FcγRIIb-independent 4-1BB bioassay [2] | Fold of induction (RLU), FcγRIIb-independent 4-1BB bioassay [2] | EC50 [3]
1 | Urelumab (antibody, V domains shown) VH: QVQLQQWGAGLLKPSETLSLTCAVYGGSFSGYYWSWIRQSPEKGLEWIGEINHGGYVTYNPSLESRVTISVDTSKNQFSLKLSSVTAADTAVYYCARDYGPGNYDWYFDLWGRGTLVTVSS VL: EIVLTQSPATLSLSPGERATLSCRASQSVSSYLAWYQQKPGQAPRLLIYDASNRATGIPARFSGSGSGTDFTLTISSLEPEDFAVYYCQQRSNWPPALTFGGGTKVEIK | 240 pM | 190 fold (RLU) | 537 pM | 14.1 fold (RLU) | –
2 | 1A12 (antibody, human IgG4 S228P, lambda, V domains shown, Full-length IgG form; also called 1Al2; anti-4-1BB antibody 1A12 (full-length IgG form)) VH: EVQLLESGGGLVQPGGSLRLSCAASGFTFSGYDMSWVRQAPGKGLEWVSVIYPDDGNTYYADSVKGRFTISRDNSKNTLYLQMNSLRAEDAAVYYCAKHGGQKPTTKSSSAYGMDGWGQGTLVTVSS VL: QSVLTQPPSASGTPGRRVTISCSGSSSNIGNNYVTWYQQLPGTAPKLLIYADSHRPSGVPDRFSGSKSGTSASLAISGLRSEDEADYYCATWDYSLSGYVFGGGTKLTVLG | – | – | – | – | 180 pM
3 | AB41 (antibody, human IgG4 S228P, kappa, V domains shown, Full-length IgG form; also called anti-4-1BB antibody AB41 (full-length IgG form)) VH: QVQLQQSGAEVIKPGASVKLSCKASGYTFSSYWMHWVRQAPGQGLEWIGEINPGNGHTNYNEKFKSRATLTGDTSTSTVYMELSSLRSEDTAVYYCARSFTTARAFAYWGQGTLVTVSS VL: DIVMTQSPAFLSVTPGEKVTITCRASQTISDYLHWYQQKPDQAPKLLIKYASQSISGIPSRFSGSGSGTDFTFTISSLEAEDAATYYCQDGHSFPPTFGQGTKLEIKR | – | – | – | – | 200 pM
